IntAct's records for PubMed 17280616

B1: Maternal embryonic leucine zipper kinase (Homo sapiens), Q14680 (parent)
chain: MKDYDELLKYYELHETIGTGGFAKVKLACHILTGEMVAIKIMDKNTLGSDLPRIKTEIEALKNLRHQHICQLYHVLETANKIFMVLEYCPGGELFDYIISQDRLSEEETRVVFRQIVSAVAYVHSQGYAHRDLKPENLLFDEYHKLKLIDFGLCAKPKGNKDYHLQTCCGSLAYAAPELIQGKSYLGSEADVWSMGILLYVLMCGFLPFDDDNVMALYKKIMRGKYDVPKWLSPSSILLLQQMLQVDPKKRISMKNLLNHPWIMQDYNYPVEWQSKNPFIHLDDDCVTELSVHHRNNRQTMEDLISLWQYDHLTATYLLLLAKKARGKPVRLRLSSFSCGQASATPFTDIKSNNWSLEDVTASDKNYVAGLIDYDWCEDDLSTGAATPRTSQFTKYWTESNGVESKSLTPALCRTPANKLKNKENVYTPKSAVKNEEYFMFPEPKTPVNKNQHKREILTTPNRYTTPSKARNQCLKETPIKIPVNSTGTDKLMTGVISPERRCRSVELDLNQAHMEETPKRKGAKVFGSLERGLDKVITVLTRSKRKGSARDGPRRLKLHYNVTTTRLVNPDQLLNEIMSILPKKHVDFVQKGYTLKCQTQSDFGKVTMQFELEVCQLQKPDVVGIRRQRLKGDAWVYKRLVEDILSSCKV

Variants of: B1
Settings: with BCL2L14, Q9BZR8
BCL2L14, Q9BZR8, sequence (Q9BZR8 whole entry): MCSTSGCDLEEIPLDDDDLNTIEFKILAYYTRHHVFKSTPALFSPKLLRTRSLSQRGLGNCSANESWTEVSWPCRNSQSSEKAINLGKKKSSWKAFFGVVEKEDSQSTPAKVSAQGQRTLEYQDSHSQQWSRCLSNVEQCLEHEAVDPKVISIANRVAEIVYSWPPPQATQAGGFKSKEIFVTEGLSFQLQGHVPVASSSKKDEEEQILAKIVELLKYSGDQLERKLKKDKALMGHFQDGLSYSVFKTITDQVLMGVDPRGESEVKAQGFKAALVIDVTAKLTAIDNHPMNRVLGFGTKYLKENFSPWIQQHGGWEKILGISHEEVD

Variant	effect of a mutation on the interaction
D150A	disrupting interaction
